Data from patent US20120219564 (published 2012).
One block for each binder: values may come before it.

Key:
human TNFα [1] = target: T1, human TNFα (human, UniProt P01375); experiment: SPR
human TNFα [2] = target: T1, human TNFα; experiment: other, equilibrium analysis
human TNFα [3] = target: T1, human TNFα; experiment: SPR; remark: listed apart in the source

T1 sequence (P01375 77-233): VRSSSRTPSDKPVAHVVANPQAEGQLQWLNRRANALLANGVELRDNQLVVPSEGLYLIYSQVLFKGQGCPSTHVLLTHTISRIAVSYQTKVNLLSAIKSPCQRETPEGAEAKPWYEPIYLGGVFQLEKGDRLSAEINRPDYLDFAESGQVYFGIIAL

koff (human TNFα [1]): 0.0137 s⁻¹
B1: 2SD4 scFv (antibody, V domains shown)
VH: QVQLVESGGGLVQPGRSLRLSCAASGFTFDDYAMHWVRQAPGKGLDWVSAITWNSGHIDYADSVEGRFAVSRDNAKNALYLQMNSLRPEDTAVYYCTKASYLSTSSSLDNWGQGTLVTVSS
VL: DIQMTQSPSSLSASIGDRVTITCRASQGIRNYLAWYQQKPGKAPKLLIYAASTLQSGVPSRFSGSGSGTDFTLTISSLQPEDVATYYCQKYNSAPYAFGQGTKVEIK

Kd (human TNFα [2]): 0.48 nM
Kd (human TNFα [3]): 20 nM
B2: 2SD4 IgG4 (antibody, V domains shown)
VH: B1 VH
VL: B1 VL
